Results published in patent US20200239537A1 (GOVERNORS OF THE UNIVERSITY OF ALBERTA, published 2020).
*1 amine or outer side, *2 acyl side, *3 side chain or, on linkers, in order; H or OH if unused. Where no end group is shown, it is not given here. [ ]: non-standard residue; d: D form. The star is where a group is joined. azaArg = aza-arginine, alpha-carbon replaced by nitrogen, N=C(N)NCCCN(N[*:1])C(=O)[*:2]; Phe(4-Br) = N[C@@H](Cc1ccc(Br)cc1)C(=O)O; azaLeu = CC(C)CN(N[*:1])C(=O)[*:2]; Palmitoyl = CCCCCCCCCCCCCCCC(=O)*; αMeR = C[C@](N)(CCCNC(=N)N)C(=O)O; NMeL = CN[C@@H](CC(C)C)C(=O)O; αMeL = CC(C)C[C@](C)(N)C(=O)O; Nle = CCCC[C@H](N)C(=O)O; Aib = CC(C)(N)C(=O)O

T1: recombinant human APJ receptor (Chem-5-APJ cells) (human, UniProt P35414 1-380)
T1 sequence (looked up): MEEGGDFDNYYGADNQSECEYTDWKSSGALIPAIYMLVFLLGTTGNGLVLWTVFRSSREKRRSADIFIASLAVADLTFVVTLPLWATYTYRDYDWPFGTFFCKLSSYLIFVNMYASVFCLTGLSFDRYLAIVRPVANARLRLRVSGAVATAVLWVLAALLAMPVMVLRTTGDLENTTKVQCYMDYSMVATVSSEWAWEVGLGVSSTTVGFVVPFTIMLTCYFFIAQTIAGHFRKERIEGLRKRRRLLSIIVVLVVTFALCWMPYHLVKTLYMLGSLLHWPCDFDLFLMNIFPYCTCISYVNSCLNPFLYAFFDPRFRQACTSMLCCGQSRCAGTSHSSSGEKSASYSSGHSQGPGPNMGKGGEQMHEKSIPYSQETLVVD

T2: wild-type rat apelin receptor tagged at its C-terminus with EGFP (rat, UniProt Q9JHG3 1-377)
T2 construct: whole, on cells; Used as crude membrane preparations from CHO cells stably expressing the receptor; also called wild-type rat apelin receptor-EGFP; not shown: EGFP tag at the C-terminus
T2 sequence (looked up): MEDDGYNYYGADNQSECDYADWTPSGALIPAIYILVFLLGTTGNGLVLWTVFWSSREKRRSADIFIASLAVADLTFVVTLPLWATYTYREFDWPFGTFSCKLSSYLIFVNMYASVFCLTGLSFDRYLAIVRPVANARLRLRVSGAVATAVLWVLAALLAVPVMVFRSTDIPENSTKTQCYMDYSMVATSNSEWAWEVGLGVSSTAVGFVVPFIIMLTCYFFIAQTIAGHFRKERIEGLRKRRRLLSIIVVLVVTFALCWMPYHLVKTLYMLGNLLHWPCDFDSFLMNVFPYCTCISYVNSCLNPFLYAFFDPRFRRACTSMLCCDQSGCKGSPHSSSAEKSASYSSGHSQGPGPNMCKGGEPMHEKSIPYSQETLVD


The binders below were run against T1, recombinant human APJ receptor … (assay: cell-based or functional assay).

Binder	EC50 of Ca2+ mobilization, fold against the 17-mers [fold]
RQRPR[NMeL]SHKGP[Nle][Aib][Phe(4-Br)] [Apelin-NMe14A2 (55)]	~200
RQRPRLSHKGP[Nle][Aib][Phe(4-Br)] [Apelin-14A2 (54)]	~200

Molecular target: T1, recombinant human APJ receptor …
Assay: cell-based or functional assay
Remark: another data set of the same source

Binder	EC50 (nM), Ca2+ mobilization assay [nM]
RQRPR[NMeL]SHKGP[Nle][Aib][Phe(4-Br)] [Apelin-NMe14A2 (55)]	176
KFRRQRPR[NMeL]SHKGP[Nle][Aib][Phe(4-Br)] (not fully specified (N-terminus); numbers in words are those of the source; also: N-terminal PEG from Fmoc-(PEG)6 propionic acid, Fmoc removal not given here) [PEG-NMe17A2 (59)]	2.5
Palmitoyl-KFRRQRPR[NMeL]SHKGP[Nle][Aib][Phe(4-Br)] [PALM-NMe17A2 (58)]	11.3
RQRPRLSHKGP[Nle][Aib][Phe(4-Br)] [Apelin-14A2 (54)]	568
KFRRQRPRLSHKGP[Nle][Aib][Phe(4-Br)] (not fully specified (N-terminus); also: Fmoc removal from PEG not given here) [PEG-17A2 (57)]	6.3
Palmitoyl-KFRRQRPRLSHKGP[Nle][Aib][Phe(4-Br)] [PALM-17A2 (56)]	2.6
KFRRQRPRLSHKGP[Nle][Aib][Phe(4-Br)] (Synthetic ACE2-resistant analogue; also called parent peptide 5) [apelin-17 A2 (5)]	4

Each binder was assayed against T2, wild-type rat apelin receptor tagged at … (assay: displacement of 0.2 nM [125I]-pyr-1-apelin-13; membranes of CHO cells expressing rat apelin receptor-EGFP).
Experimental: This experiment evaluated the ability of peptides of the present embodiments to bind to the wild-type rat apelin receptor, in order to examine the impact of synthetic modification within the critical RPRL motif of the apelin peptides.
The reaction was stopped by adding 4 mL of cold binding buffer, filtered on Whatman GF/C filters and washed with 5 mL of cold binding buffer. Radioactivity was then counted using a Wizard 1470 Wallac gamma counter (Perkin Elmer, Turku, Finland). Binding experiment data were analyzed with GraphPad Prism.

Binder	Ki [nM]	times less potent than native 2 [fold]	factor of weaker affinity compared to 1 [fold]
KFRRQRPRLSHKGPMPF (Native isoform; apelin residues 61-77; also called native apelin-17; native isoform 2) [apelin-17 (2)]	0.053	–	–
KFRRQRPR[NMeL]SHKGP[Nle][Aib][Phe(4-Br)] (also called Apelin-NMe17A2; NMeLeu-17A2) [N-MeLeu9-apelin-17 A2 (11)]	0.45	~3	–
KFRRQRPR[αMeL]SHKGP[Nle][Aib][Phe(4-Br)] [α-MeLeu9-apelin-17 A2 (15)]	0.18	~3	–
XRPRLSHKGPXXX (pGlu at 1; Nle at 11; Aib at 12; paraBrPhe at 13, Synthetic ACE2-resistant analogue; also called parent peptide 4; none (A2)) [pyr-1-apelin-13 A2 (4)]	2	–	6
KFRRQRP[αMeR]LSHKGP[Nle][Aib][Phe(4-Br)] (also called α-MeArc8-apelin-17 A2) [α-MeArg8-apelin-17 A2 (13)]	0.13	~3	–
KFRRQRPR[azaLeu]SHKGP[Nle][Aib][Phe(4-Br)] [azaLeu9 apelin-17 A2 peptide (19)]	0.15	~3	–
KFRRQRPR[dL]SHKGP[Nle][Aib][Phe(4-Br)] [D-Leu9-apelin-17 A2 (9)]	0.14	~3	–
KFRRQRP[azaArg]LSHKGP[Nle][Aib][Phe(4-Br)] [azaArg8-apelin-17 A2 (17)]	0.14	~3	–
KFRRQRPRLSHKGP[Nle][Aib][Phe(4-Br)] (Synthetic ACE2-resistant analogue; also called parent peptide 5) [apelin-17 A2 (5)]	0.19	–	–
